Test results published in patent US20110223630A1, “METHOD FOR SCREENING FOR COMPOUNDS THAT INHIBIT NEURODEGENERATION” (priority 2008, published 2011).

Experiments:
Test in all cases: Cell-based AP binding assay on transfected COS-1 cells
[1] = target: T1, DR6 receptor (Homo sapiens, UniProt O75509); conditions: same conditions as APP
T1 construct: expressed in transfected cells; host or cells: COS-1
T1 sequence (O75509 42-655): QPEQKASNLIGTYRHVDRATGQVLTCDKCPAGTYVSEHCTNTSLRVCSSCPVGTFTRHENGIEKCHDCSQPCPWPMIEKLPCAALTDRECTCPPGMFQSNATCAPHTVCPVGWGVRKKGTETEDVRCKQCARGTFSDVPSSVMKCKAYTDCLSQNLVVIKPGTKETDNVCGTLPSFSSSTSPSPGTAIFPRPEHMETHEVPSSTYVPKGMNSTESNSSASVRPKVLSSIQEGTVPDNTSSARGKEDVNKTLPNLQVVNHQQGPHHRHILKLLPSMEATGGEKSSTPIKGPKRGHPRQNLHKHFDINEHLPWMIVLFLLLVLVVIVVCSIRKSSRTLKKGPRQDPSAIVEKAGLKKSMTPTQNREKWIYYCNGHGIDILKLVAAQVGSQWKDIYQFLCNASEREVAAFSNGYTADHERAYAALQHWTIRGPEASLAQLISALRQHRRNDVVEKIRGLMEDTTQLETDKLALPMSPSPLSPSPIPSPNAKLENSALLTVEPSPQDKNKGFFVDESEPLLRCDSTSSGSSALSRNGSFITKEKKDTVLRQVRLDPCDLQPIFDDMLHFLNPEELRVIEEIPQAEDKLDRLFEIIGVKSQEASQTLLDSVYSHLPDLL
Protocol: (§1) The materials and methods used to generate the data shown in this figure are as follows. To test whether APP directly interacts with DR6 extracellular domain, a cell-based A binding assay was carried out (FIG. 14B). To generate DR6 ectodomain-A fusion protein (DR6-AP), COS-1 cells cultured in DMEM/10% FBS (Gibco) medium were transfected with 15 microgram of DR6-AP fusion expression construct using FuGene transfection reagent (Roche) according to the manufacturer protocol. Twelve hours post-transfection, COS-1 cell medium was changed to OPTI-MEM (Invitrogen). Forty-eight hours post-transfection, COS-1 cell conditioned medium containing DR6-AP proteins was collected and filtered. The amount of DR6-AP proteins in the medium was quantified according to the following procedure. 100 microliters of 2×AP buffer (prepared by adding 100 mg Para-nitrophenyl phosphate (Sigma) and 15 microliter of 1M MgCl2 to 15 ml 2M diethanolamine pH 9.8) was mixed with equal volume of transfected COS cell conditioned medium or control conditioned medium from untransfected COS-1 cells. The color of the reaction was developed over 12-15 minutes, with the O.D. being in the linear range (0.1-1). The volume of reaction was then adjusted by adding 800 microliters of distilled water and the O.D. was measured at 405 nm absorbance wavelength. The concentration in nM was calculated according to the formula (for 100 microliter): C (nM)=O.D.×100×(60/developing time)/30. For the APP AP binding assay, COS-1 cells cultured in DMEM/10% FBS (Gibco) medium in 6-well culture dishes were transfected with 2 microgram of APP expressing vector per well using FuGene transfection reagent (Roche) according to the manufacturer protocol. Two days post-transfection, cells were washed twice with the binding buffer (HBSS, Gibco Cat. No. 14175-095, with 0.2% BSA, 0.1% NaN3, 5 mM CaCl2, 1 mM MgCl2, 20 mM HEPES, pH=7.0). […]

[2] = target: T2, p75NTR (Homo sapiens, UniProt P08138); conditions: same conditions as APP
T2 construct: expressed in transfected cells; host or cells: COS-1
T2 sequence (P08138 29-427): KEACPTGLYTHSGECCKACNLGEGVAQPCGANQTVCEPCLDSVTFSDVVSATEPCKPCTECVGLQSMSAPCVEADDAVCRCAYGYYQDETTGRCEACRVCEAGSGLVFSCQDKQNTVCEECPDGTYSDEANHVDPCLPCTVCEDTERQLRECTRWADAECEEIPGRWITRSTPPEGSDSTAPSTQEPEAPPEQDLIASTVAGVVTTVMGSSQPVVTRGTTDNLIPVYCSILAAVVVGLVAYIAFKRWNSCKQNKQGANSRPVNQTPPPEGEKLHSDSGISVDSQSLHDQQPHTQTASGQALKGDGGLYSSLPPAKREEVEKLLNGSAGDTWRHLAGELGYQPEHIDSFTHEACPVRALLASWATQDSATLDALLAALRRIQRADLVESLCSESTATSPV
Protocol: as §1

[3] = target: T3, APP (Homo sapiens, UniProt P05067); conditions: DR6-AP conditioned medium 1:1 with binding buffer, 90 minutes
T3 construct: expressed in transfected cells; host or cells: COS-1
T3 sequence (P05067 18-770): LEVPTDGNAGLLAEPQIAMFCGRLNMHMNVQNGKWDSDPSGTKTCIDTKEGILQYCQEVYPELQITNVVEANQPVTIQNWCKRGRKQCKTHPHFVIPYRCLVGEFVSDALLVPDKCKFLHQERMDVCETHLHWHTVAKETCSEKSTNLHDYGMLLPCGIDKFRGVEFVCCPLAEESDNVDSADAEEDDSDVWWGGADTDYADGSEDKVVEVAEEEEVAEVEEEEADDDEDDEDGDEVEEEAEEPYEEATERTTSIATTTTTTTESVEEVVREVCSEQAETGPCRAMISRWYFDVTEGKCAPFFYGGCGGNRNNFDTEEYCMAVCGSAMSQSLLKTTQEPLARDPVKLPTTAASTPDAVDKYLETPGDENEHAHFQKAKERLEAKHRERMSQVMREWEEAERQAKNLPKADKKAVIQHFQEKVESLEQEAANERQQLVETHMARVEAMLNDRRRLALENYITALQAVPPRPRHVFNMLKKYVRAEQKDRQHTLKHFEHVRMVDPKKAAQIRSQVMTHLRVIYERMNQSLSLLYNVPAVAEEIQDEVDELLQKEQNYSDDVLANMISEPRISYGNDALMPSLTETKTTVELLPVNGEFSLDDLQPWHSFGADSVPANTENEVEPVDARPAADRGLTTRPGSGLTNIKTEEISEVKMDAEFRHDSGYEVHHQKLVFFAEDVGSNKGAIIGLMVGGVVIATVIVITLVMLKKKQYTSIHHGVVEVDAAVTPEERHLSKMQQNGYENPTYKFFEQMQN
Protocol: as §1

B1: DR6-AP: mouse DR6 ectodomain fused to human placental alkaline phosphatase (protein)
chain: QPEQKTLSLPGTYRHVDRTTGQVLTCDKCPAGTYVSEHCTNMSLRVCSSCPAGTFTRHENGIERCHDCSQPCPWPMIERLPCAALTDRECICPPGMYQSNGTCAPHTVCPVGWGVRKKGTENEDVRCKQCARGTFSDVPSSVMKCKAHTDCLGQNLEVVKPGTKETDNVCGMRLFFSSTNPPSSGTVTFSHPEHMESHDVPSSTYEPQGMNSTDSNSTASVRTKVPSGIEEGTVPDNTSSTSGKEGTNRTLPNPPQVTHQQAPHHRHILKLLPSSMEATGEKSSTAIKAPKRGHPRQNAHKHFDINEH
modifications: left off: large carriers
notes: mouse DR6 ectodomain fused to human placental alkaline phosphatase
Q: Which results are given for B1?
A: binding of DR6 ectodomain-AP to DR6 receptor expressing cells [1]: does NOT bind; binding of DR6 ectodomain-AP to p75NTR expressing cells [2]: does NOT bind; binding of DR6 ectodomain-AP to APP expressing COS cells [3]: binds APP expressed by cultured cells
